The source of these data is paper doi:10.1101/2022.01.14.476343.

This assay has as its target Tpp49Aa1 pesticidal protein from Lysinibacillus sphaericus (Lysinibacillus sphaericus). The assay can be described thus: crystal structure.

A word on the stoichiometry N: it is the number of molecules, sites or subunits per partner or assembly.

In the case of “Tpp49Aa1 pesticidal protein from Lysinibacillus sphaericus (natural protein)”, the stoichiometry N is 2.
